Data from the supplement of paper PMC10567573.

B1: TRIM39 (parent)
chain: YPCVLATEGFTSGRHYWEVEVGDK
B2: PRIM1 (parent)
chain: CCSSADICPKCWTLMTMAIRIIDR
B3: TRIM15 (parent)
chain: LLARLRELEQQIWKERDEYITKVS

Variants of: B1
Test: protein stability index of a GFP-peptide fusion (GPS, HEK-293T) (PSI 1-6); higher = more stable
Settings: c terminus: a fixed tail appended
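Note: lentivirally expressed fusions sorted by FACS into six bins by GFP to DsRed ratio, PSI derived from sequencing read proportions per bin multiplied by bin number.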

Protein stability index: each site, then its substitutions
T7: Y 1.09
Y16: D 3.52
K24: M 1.95
R14: E 3.04
F10: I 2.15
Y1: E 3.65 | D 3.45
E8: H 1.93 | G 2.09
L5: K 2.21 | T 2.16 | Y 2.3
G13: D 2.24
T11: Y 3.04 | L 1.89
V4: M 2.06 | H 1.52 | G 2.69
V19: M 2.63
S12: K 1.95
V21: H 1.86
D23: E 1.85

Variants of: B2
Test: as above
Settings: c terminus: a fixed tail appended

Protein stability index of substitutions, site by site:
D23: R 1.68 | H 1.69
M15: R 2.35
S3: R 1.9
P9: R 1.73
A5: V 1.64 | Y 3.67
S4: W 1.51

Variants of: B3
Test: as above
Settings: c terminus: a fixed tail appended

Protein stability index: each site, then its substitutions
Y19: T 1.67 | N 1.91 | M 2.21 | Q 2.13 | L 1.98 | P 1.55 | D 2.12 | W 2.07 | E 1.39 | S 1.71
L2: M 1.49 | I 1.65 | N 2.18 | C 1.6 | H 2.13 | Q 1.22 | G 1.9 | F 1.67 | T 2.56 | Y 4.12 | V 1.74 | K 1.25 | S 2.34 | A 2.12 | P 3.13 | D 2.55 | W 2.23 | E 1.38
Q11: V 2.12 | R 2.29 | N 1.68 | G 1.41 | W 1.08 | M 1.08 | S 2.51 | H 1.98 | E 1.01 | D 2.36 | P 1.62 | Y 1.88 | A 1.98
L5: Y 1.77 | N 2.43 | I 2.98 | M 1.83 | W 1.34 | P 2.65 | R 2.28 | T 2.44 | D 2.44 | E 2.96 | G 2.6 | F 2.17 | V 2.95 | S 3.44 | A 1.91 | Q 2.64 | H 2.72
L8: S 1.75 | K 3.04 | E 2.24 | W 1.62 | P 2.55 | D 2.48 | H 2.12 | V 1.69 | N 2.03 | G 2.9 | Y 2.22 | R 1.44 | C 1.49 | A 1.14 | T 2.74 | I 2.51
R4: Q 1.74 | P 1.6 | S 1.78 | W 2.67 | F 1.73 | M 2.36 | N 1.58 | Y 1.92 | G 2.56
L1: M 1.03 | E 2.2 | K 2.05 | D 2.31 | Q 2.83 | C 1.84 | A 1.79 | Y 2.35 | P 2.37 | H 2.19 | T 1.63 | S 2.12 | F 1.55 | R 1.87 | G 1.55 | N 3.22
W13: V 1.96 | Q 2.46 | I 1.32 | C 2.68 | H 1.37 | S 1.68 | L 1.71 | F 2.83 | Y 1.51 | R 1.77 | A 1.52 | P 1.81 | G 2.31 | K 2.24 | T 1.69 | E 2.03
R16: Q 1.58 | K 1.92 | L 3.68 | Y 2.13 | A 1.78 | M 1.61 | H 1 | E 2 | C 2
K22: P 1.23 | Y 1.9 | F 1.72 | W 2.06 | V 1.97 | D 1.97 | I 1.78 | A 2.38 | G 2.25 | N 1.38 | T 1.43 | C 1.94 | R 2.46
D17: Y 3.07 | Q 3.32 | P 1.86 | L 1.04 | N 1 | E 1.78 | T 2.08 | R 2.14
K14: T 2.85 | A 1.24 | I 2.26 | N 1 | P 2.2 | F 1.68 | E 1.05 | H 1.67 | L 2.06
E7: L 2.97 | P 2.57 | N 1.84 | Y 3.38 | T 3.56 | Q 1.61 | V 3.16 | I 1.03 | C 2.53 | R 1.07 | D 1.6
I20: A 1.3 | Q 2.09 | E 4.11 | Y 3.1 | N 1.63 | H 2.12 | S 2.18 | P 1.6 | F 3.15 | D 2.11 | G 2.17 | M 1.71 | K 2.1 | C 1.08 | L 1.33 | R 2.91
E18: M 2.33 | G 1.81 | N 2.08 | Q 1.18
Q10: K 2.02 | I 2.65 | D 2.21 | M 3.32 | T 1.09 | E 1.51 | P 1.4 | N 2.35 | F 3.2 | G 1.58 | R 2.02 | V 2.31 | W 3.11 | S 1.18
S24: A 1.63 | C 2.05 | M 2.12 | K 1.44 | L 1.95 | P 1.82 | F 1.51 | T 1.31 | E 1.38 | H 2.29 | V 3 | D 3.02 | I 2.42 | Y 2.94 | N 1.52 | R 1.93
T21: D 1.32 | H 1.49 | Q 2.41 | W 2.63 | K 1.48 | Y 2.02 | P 2.59 | L 2.39 | A 2.07 | I 2.45 | N 1.7
R6: K 2.13 | V 3.95 | E 1.82 | S 2.56 | C 1.8 | Q 1.44 | P 2.44 | H 1.65 | D 1.79 | T 1.76
E15: A 1.28 | Q 1.47 | L 2.15 | D 2.08 | R 1.05 | F 2.15 | I 1.42 | G 1.18 | N 1
E9: K 1.62 | L 1.8 | D 3.17 | N 1.94 | H 1.45 | W 1.69 | C 2.11 | P 2.29 | Q 1.07 | I 1.96 | T 3.38 | R 2.22 | F 3.06 | Y 1.59
I12: N 1.24 | Y 2.13 | A 1.88 | E 2.38 | L 1.67 | H 1.8 | Q 2.34 | S 1.35 | M 3.6 | F 2.15 | D 2.75 | C 1.42 | P 1.77 | V 1.65 | W 1.43 | R 2.21
V23: D 3.9 | I 1.86 | Q 1.71 | L 2 | R 1.57 | A 1.5 | W 1.7 | C 2.1 | H 1.86 | N 1.64 | Y 2.4 | M 2.03 | F 1.69 | S 2.25 | P 1.26 | T 1.63
A3: C 2.64 | S 1.69 | T 2.2 | G 1.44 | V 2.49 | L 2 | Q 1.9 | D 2.18 | F 2.9 | E 3.27 | P 1.99 | H 1.46 | M 2.34
